Values quoted from earlier work in patent US6194458A, “Benzamide potassium channel inhibitors” (Merck & Co., Inc., priority 1999, dated 2001).

Target: T1, Kv 1.3 channels (Homo sapiens, UniProt P22001)
T1 construct: expressed in transfected cells; host or cells: CHO cells
Details: blocker of Kv 1.3 channels; CHO cells transfected with Kv 1.3; stated in the method description

T1 sequence (P22001 whole entry): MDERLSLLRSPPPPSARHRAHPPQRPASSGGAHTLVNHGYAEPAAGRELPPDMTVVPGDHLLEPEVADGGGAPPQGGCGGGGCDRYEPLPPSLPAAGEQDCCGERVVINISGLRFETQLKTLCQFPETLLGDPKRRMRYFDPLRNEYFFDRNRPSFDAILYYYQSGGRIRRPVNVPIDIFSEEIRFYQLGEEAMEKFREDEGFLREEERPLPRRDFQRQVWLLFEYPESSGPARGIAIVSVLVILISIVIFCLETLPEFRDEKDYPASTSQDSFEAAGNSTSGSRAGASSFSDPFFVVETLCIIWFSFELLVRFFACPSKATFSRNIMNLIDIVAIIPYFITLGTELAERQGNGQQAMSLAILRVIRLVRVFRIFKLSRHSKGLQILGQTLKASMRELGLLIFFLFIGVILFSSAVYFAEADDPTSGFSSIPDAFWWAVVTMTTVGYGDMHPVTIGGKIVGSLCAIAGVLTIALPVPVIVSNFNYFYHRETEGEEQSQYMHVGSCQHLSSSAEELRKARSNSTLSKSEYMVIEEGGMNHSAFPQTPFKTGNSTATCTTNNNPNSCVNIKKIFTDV

With “margatoxin (TIINVKCTSPKQCLPPCKAQFGQSAGAKCMNGKCKCYPH; UniProt P40755 1-39, looked up)” as the substance, how does the IC50 read?
Its IC50 is 100 pM.
